Like-named read-outs stand apart in the source and are kept apart here.
B1: m2 -97/-84 (dsDNA)
DNA 1: AAATACCGGAAGTG
DNA 2: CACTTCCGGTATTT
B2: m3 -97/-84 (dsDNA)
DNA 1: AAATATCGGAAGTG
DNA 2: CACTTCCGATATTT

Key:
His6-Elf-1 [1] = biological target: T1, His6-Elf-1 (human, UniProt P32519 1-619); test: EMSA
His6-Elf-1 [2] = biological target: T1, His6-Elf-1; test: EMSA; remark: listed apart in the source

T1 sequence (P32519 whole entry): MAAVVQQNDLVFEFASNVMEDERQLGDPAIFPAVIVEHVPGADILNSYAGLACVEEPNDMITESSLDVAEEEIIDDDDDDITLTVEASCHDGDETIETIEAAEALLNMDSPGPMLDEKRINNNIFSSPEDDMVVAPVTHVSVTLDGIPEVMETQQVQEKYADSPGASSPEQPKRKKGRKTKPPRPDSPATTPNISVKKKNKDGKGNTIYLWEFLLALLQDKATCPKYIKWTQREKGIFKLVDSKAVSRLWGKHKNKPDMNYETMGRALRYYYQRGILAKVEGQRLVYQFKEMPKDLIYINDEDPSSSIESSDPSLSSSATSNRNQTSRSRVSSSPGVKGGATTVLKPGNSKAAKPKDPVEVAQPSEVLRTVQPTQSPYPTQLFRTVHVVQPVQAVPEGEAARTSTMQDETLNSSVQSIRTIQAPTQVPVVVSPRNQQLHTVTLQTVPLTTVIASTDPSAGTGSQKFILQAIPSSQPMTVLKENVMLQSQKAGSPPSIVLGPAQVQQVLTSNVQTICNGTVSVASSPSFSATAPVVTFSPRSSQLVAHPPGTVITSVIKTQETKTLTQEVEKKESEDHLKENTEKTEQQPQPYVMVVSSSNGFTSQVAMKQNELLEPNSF

Binder	binding result (His6-Elf-1 [1])	binding result (His6-Elf-1 [2])
B1	binds	
B2		no binding

From PMC2192344
